Positions count from the first letter of the chain named. Names and notes keep the numbering of the source. Marks after values point to notes of the source that are not given here.
Assays:
[1] = test system: meniscal tear (MT) induced rat model of cartilage degeneration; assay: Meniscal tear rat model of cartilage degeneration; type: in vivo
Source text: The effect of human mature BMP7 protein variant (SEQ ID NO: 8) may be evaluated using an osteoarthritic (OA) pain in the meniscal tear (MT) induced rat model of cartilage degeneration. Male Lewis rats (approximately 25 weeks of age) may be used for such a study. Briefly described, rats may be anesthetized with 3% isoflurane prior to surgery. The right knee may be flexed and a transverse medial incision is made along the proximal antero-medial aspect of the tibia exposing the medial […] ligament. The […] ligament and the joint capsule may be incised simultaneously freeing the tibial attachments of the medial meniscus. Approximately 3 mm of the meniscus may be freed from its attachment to the margin of the tibial plateau and the meniscus may be transected to simulate a complete tear. The incision may be closed with surgical glue.
The animals may be treated with wild type human mature BMP7 at a dose of 350 ng/knee or human mature BMP7 protein variant F9 (SEQ ID NO: 8) at two doses of 49 ng or 245 ng/knee in 50 μl phosphate buffered saline (PBS), pH 7.4. The treatment may be initiated 3 weeks after MT surgery and continued for […]. Animals may be administered weekly intra-articular injections of wild type human mature BMP7 or human mature BMP7 protein variant F9 (SEQ ID NO: 8) or vehicle at various doses for 5 weeks into the operated knee. Pain measurements may be made by incapacitance testing on days 18 (baseline), 25, 31, 42 and 53 post MT surgery using an incapacitance tester (Columbus Instruments International, Columbus, Ohio). Changes in hind paw weight distribution between the osteoarthritic (right) and contralateral control (left) limb may be utilized as an index of joint discomfort (measure of pain) in the osteoarthritic knee. Results may be presented as the difference in weight bearing between the contralateral control (left) and the osteoarthritic (right).

[2] = test system: rat primary articular chondrocytes (RPACs); assay: Chondrogenesis assay (pellet culture); type: cell-based; conditions: 2 weeks in culture
Description: The effect of wild type human mature BMP7 and variants thereof may be evaluated for differentiation of chondrocytes in an in vitro model utilizing rat primary articular chondrocytes (RPACs). To obtain RPACs, articular cartilage may be isolated from 2-3 day old rats. The cartilage may be digested with 0.4% collagenase for 2 hours and then the resultant cells may be washed with phosphate buffered saline and subsequently cultured in media containing DMEM, 10% FBS and 1% penicillin/streptomycin in humidified air with 5% CO2 at 37° C.
To assess the chondrogenic differentiation, a pellet culture system may be used. Approximately 2×10^5 cells from passage 2-3 may be placed in 1.5 ml tubes and centrifuged at 500 g for 10 minutes. The pellets may be cultured at 37° C. with 5% CO2 in 500 μl of medium. […] The media may be replaced twice per week for 2 weeks. After 2 weeks in culture, the pellets may be harvested and macroscopic analysis was performed by stereomicroscopic procedures. The images may be analyzed and the pellet sizes may be calculated in a 2-dimensional image.

[3] = test system: rat surgical fracture model; assay: Bone healing model (cortical defect); type: in vivo; conditions: day 35; for BMC: mean ± SEM; for % Increase From Vehicle Control: BMC
Source text: The effect of wild type human mature BMP7 and variants thereof may be evaluated on bone regeneration and repair or bone healing in a rat surgical fracture model. Animals may be ovariectomized at 6 months of age and allowed to lose bone for two months before fracture surgery. Cortical defect surgery may be performed essentially as previously described (Komatsu, et al., Endocrinology, 150:1570-1579, 2009). Briefly, the procedure involves incising the skin over the lateral femoral aspect and blunt dissection of the quadriceps to expose the distal femoral diaphysis. Cortical defects may be then generated through the anterior and posterior cortexes using a Dremel tool (Robert Bosch Tool Corp, Gerlingen, Germany) equipped with a 2 mm orthopedic drill bit (Zimmer Inc, Warsaw, Ind.). The muscles may be subsequently repositioned, and the skin may be closed with tissue adhesive. Groups of animals may be treated with various amounts of wild type human mature BMP7 or variants thereof prepared in sodium citrate buffer pH 3.0 and adsorbed to Helistat type-1 collagen sponges in a volume of 50 μl. The treatments may be administered locally at the site of defect during surgery and treated for 35 days. A control group may receive the vehicle containing the same constituents in collagen sponge without the therapeutic proteins. In vivo fracture repair and bone mineral content (BMC) may be evaluated by quantitative computed tomography (QCT) using a GE Locus Ultra CT scanner (GE Healthcare, London, Ontario, Canada) as described previously (Komatsu et al., 2008).

[4] = test system: monosodium iodoacetate (MIA)-induced rat model of OA pain; assay: MIA rat model of osteoarthritic pain; type: in vivo
Description: The effect of human mature BMP7 protein variant F9 (SEQ ID NO: 8) may be evaluated in the monosodium iodoacetate (MIA)-induced rat model of OA pain (Bove, et. al., Osteoarthritis and Cartilage, 2003, 11: 821-830).
Briefly stated, male Lewis rats aged 7-8 weeks at the time of MIA injection may be used for this study. For induction of osteoarthritis, the rats may be anesthesized with isoflurane and given a single intra-articular injection of 0.3 mg/50 μl MIA through the infrapatellar ligament of the right knee. The left contralateral control knee may be injected with 50 μl sterile saline. The animals are treated with wild type human mature BMP7 protein at a dose of 1.0 μg/knee and human mature BMP7 protein variant F9 (SEQ ID NO: 8) at 0.175 μg and 0.7 μg/knee via intra-articular injections on day 9 and 14 post-MIA.
Pain measurements may be made by incapacitance testing on days 17, 24, 31, 38, 45, 52, 58, and 66 post-MIA injection using an incapacitance tester (Columbus Instruments International, Columbus, Ohio). Changes in hind paw weight distribution between the osteoarthritic (right) and contralateral control (left) limb may be utilized as an index of joint discomfort (measure of pain) in the osteoarthritic knee. Results may be presented as the difference in weight bearing between the contralateral control (left) and the osteoarthritic (right).

[5] = 16.5 μg on collagen sponge at defect site

B1: Human mature BMP7 protein variant F9 (SEQ ID NO: 8): homodimer wherein each monomeric subunit has SEQ ID NO: 8 (Y65G/I86L/F93V/N110G/Y128W), disulfide linked (protein)
chain: STGSKQRSQNRSKTPKNQEALRMANVAENSSSDQRQACKKHELYVSFRDLGWQDWIIAPEGYAAGYCEGECAFPLNSYMNATNHALVQTLVHVINPETVPKPCCAPTQLGAISVLYFDDSSNVILKKWRNMVVRACGCH
modifications: homodimer, disulfide linked
- Difference in hind paw weight bearing ([1]; Treatment C, 49 ng/knee weekly intra-articular, Baseline (day 18 post MT surgery)): 52.48 ± 2.11 g
- Difference in hind paw weight bearing ([1]; Treatment C, 49 ng, Day 25): 49.96 ± 0.66 g
- Difference in hind paw weight bearing ([1]; Treatment C, 49 ng, Day 31): 49.52 ± 1.10^b g
- Difference in hind paw weight bearing ([1]; Treatment C, 49 ng, Day 42): 44.8 ± 3.04^b g
- Difference in hind paw weight bearing ([1]; Treatment C, 49 ng, Day 53): 45.70 ± 2.77 g
- Difference in hind paw weight bearing ([1]; Treatment D, 245 ng/knee weekly intra-articular, Baseline (day 18 post MT surgery)): 52.02 ± 2.19 g
- Difference in hind paw weight bearing ([1]; Treatment D, 245 ng, Day 25): 49.77 ± 1.00 g
- Difference in hind paw weight bearing ([1]; Treatment D, 245 ng, Day 31): 49.54 ± 2.77^b g
- Difference in hind paw weight bearing ([1]; Treatment D, 245 ng, Day 42): 42.37 ± 1.28^b g
- Difference in hind paw weight bearing ([1]; Treatment D, 245 ng, Day 53): 38.68 ± 1.68^b g
- Pellet Size ([2]; Treatment 0.014 nM): 0.67 ± 0.16 mm^2
- Pellet Size ([2]; Treatment 0.14 nM): 1.56 ± 0.46^a mm^2
- Pellet Size ([2]; Treatment 1.4 nM): 2.61 ± 0.18^a mm^2
- BMC ([3]; 2.0 μg on collagen sponge at defect site): 16.19 ± 1.09 mg
- BMC [3, 5]: 18.13 ± 2.29^a mg
- cortical area ([3]; 16.5 μg): significant increase
- % Increase From Vehicle Control ([3]; 2.0 μg): 114%
- % Increase From Vehicle Control ([3]; 16.5 μg): 128%
- Difference in hind paw weight bearing ([4]; 0.175 μg/knee intra-articular day 9 and 14, Day 17 post-MIA): 23.29 ± 1.31 g
- Difference in hind paw weight bearing ([4]; 0.175 μg/knee, Day 24): 24.32 ± 2.97 g
- Difference in hind paw weight bearing ([4]; 0.175 μg/knee, Day 31): 21.87 ± 2.14 g
- Difference in hind paw weight bearing ([4]; 0.175 μg/knee, Day 38): 20.82 ± 1.03^b g
- Difference in hind paw weight bearing ([4]; 0.175 μg/knee, Day 45): 19.44 ± 0.80 g
- Difference in hind paw weight bearing ([4]; 0.175 μg/knee, Day 52): 19.35 ± 0.77 ^b g
- Difference in hind paw weight bearing ([4]; 0.175 μg/knee, Day 58): 17.42 ± 3.16^b g
- Difference in hind paw weight bearing ([4]; 0.175 μg/knee, Day 66): 15.00 ± 1.84^b g
- Difference in hind paw weight bearing ([4]; 0.7 μg/knee intra-articular day 9 and 14, Day 17 post-MIA): 36.75 ± 6.45^b g
- Difference in hind paw weight bearing ([4]; 0.7 μg/knee, Day 24): 29.78 ± 8.39 g
- Difference in hind paw weight bearing ([4]; 0.7 μg/knee, Day 31): 26.62 ± 6.07 g
- Difference in hind paw weight bearing ([4]; 0.7 μg/knee, Day 38): 23.63 ± 0.90 g
- Difference in hind paw weight bearing ([4]; 0.7 μg/knee, Day 45): 21.75 ± 4.34 g
- Difference in hind paw weight bearing ([4]; 0.7 μg/knee, Day 52): 20.51 ± 3.03 g
- Difference in hind paw weight bearing ([4]; 0.7 μg/knee, Day 58): 16.72 ± 0.79^b g
- Difference in hind paw weight bearing ([4]; 0.7 μg/knee, Day 66): 13.06 ± 1.78^b g

B2: Wild type human mature BMP7 (SEQ ID NO: 2): dimer of two glycosylated, 139 amino acid disulfide-linked proteins of about 35 kDa, SEQ ID NO: 2 (protein, listed as Homo sapiens)
chain: B1 chain with G65Y, L86I, V93F, G110N, W128Y
modifications: disulfide-linked glycosylated homodimer
- Difference in hind paw weight bearing ([1]; Treatment B, 350 ng/knee weekly intra-articular, Baseline (day 18 post MT surgery)): 52.33 ± 2.45 g
- Difference in hind paw weight bearing ([1]; Treatment B, 350 ng, Day 25): 50.76 ± 1.09 g
- Difference in hind paw weight bearing ([1]; Treatment B, 350 ng, Day 31): 49.97 ± 1.10 g
- Difference in hind paw weight bearing ([1]; Treatment B, 350 ng, Day 42): 46.81 ± 1.34^b g
- Difference in hind paw weight bearing ([1]; Treatment B, 350 ng, Day 53): 47.77 ± 1.78 g
- Pellet Size ([2]; Treatment 0.02 nM): 0.64 ± 0.15 mm^2
- Pellet Size ([2]; Treatment 0.2 nM): 0.70 ± 0.03 mm^2
- Pellet Size ([2]; Treatment 2 nM): 0.83 ± 0.13 mm^2
- BMC [3, 5]: 16.25 ± 1.60 mg
- % Increase From Vehicle Control ([3]; 16.5 μg): 115%
- Difference in hind paw weight bearing ([4]; 1.0 μg/knee intra-articular day 9 and 14, Day 17 post-MIA): 27.52 ± 2.81 g
- Difference in hind paw weight bearing ([4]; 1.0 μg/knee, Day 24): 26.05 ± 2.81 g
- Difference in hind paw weight bearing ([4]; 1.0 μg/knee, Day 31): 23.46 ± 1.23 g
- Difference in hind paw weight bearing ([4]; 1.0 μg/knee, Day 38): 22.68 ± 0.61 g
- Difference in hind paw weight bearing ([4]; 1.0 μg/knee, Day 45): 20.95 ± 0.87 g
- Difference in hind paw weight bearing ([4]; 1.0 μg/knee, Day 52): 20.37 ± 0.71 g
- Difference in hind paw weight bearing ([4]; 1.0 μg/knee, Day 58): 17.66 ± 1.79^b g
- Difference in hind paw weight bearing ([4]; 1.0 μg/knee, Day 66): 17.59 ± 2.68^b g

Reference: patent publication US11466066B2, “Variants of human BMP7 protein” (ELI LILLY AND COMPANY, priority 2017, dated 2022)
